Data set [1] can be described thus: Safety evaluation, repeated intravenous infusion (HNSTD). In kind it is in vivo. The settings on record: monkey HNSTD expressed as eribulin amount. The method, then: Four groups were set up for this test, namely the vehicle control group and SMP-656 groups with different doses (5, 10, 15 mg/kg), with 10 animals in each group, including 5 females and 5 males. Monkeys in each group were intravenously infused (for 30 min) with SMP-656 at doses of 5, 10 and 15 mg/kg at a volume of 10 mL/kg, once every three weeks, for 3 administrations (total 9 weeks), followed by a 4-week recovery period.
During the test, detailed clinical observations, and body weight and food intake monitoring were performed once a week. Clinical pathology examinations (including: hematology, coagulation, serum biochemistry, and urine analysis) were performed on Day 7, Day 50 and Day 71 respectively. The observation of irritation at the administration site was conducted once a week during the administration period, 2-4 h after administration on the administration day, and once a week during the recovery period. For animals with symptoms, the observation frequency was increased to daily until the symptoms disappeared. All surviving animals underwent accompanying toxicokinetic testing on Day 1 and Day 22. At the end of the administration period and the end of the recovery period, all surviving animals were euthanized as planned, dissected and grossly observed, and tissues and organs were weighed or fixed and preserved for pathological examination.

For data set [2] the following is noted: highest non-severe toxic dose; from literature references 1 and 2; cited from earlier work.
For data set [3] the following is noted: highest non-severe toxic dose; from literature references 1 and 2; cited from earlier work. This is another data set of the same source.

Like-named read-outs stand apart in the source and are kept apart here.

On to “MORAb-202: ADC with Eribulin as a small-molecule toxin, set DAR of 4”, for which the “Equivalent to eribulin amount” value in data set [1] amounted to 0.12 mg/kg. Further, the “Monkey HNSTD (mg/kg)” value in data set [2] is given as 6^1 mg/kg.
Regarding `C=C1C[C@@H]2CC[C@@]34C[C@H]5O[C@H]6[C@@H](O3)[C@H]3O[C@H](CC[C@@H]3O[C@H]6[C@H]5O4)CC(=O)C[C@@H]3[C@@H](OC)[C@@H](C[C@H](O)CN)O[C@H]3C[C@H]3O[C@@H](CC[C@@H]1O2)C[C@@H](C)C3=C` [Eribulin], the “Equivalent to eribulin amount” value in data set [1] turned out to be 0.03 mg/kg. In addition, in data set [3], the “Monkey HNSTD (mg/kg)” value is reported as 0.03^2 mg/kg.

The record behind these values is patent EP4691498A1, “ANTIBODY-DRUG CONJUGATE, AND PREPARATION METHOD THEREFOR AND USE THEREOF” (Chengdu Scimount Pharmatech Co., Ltd., priority 2023, dated 2024).
